Assay results from article PMC11860814.

Tests used:
[1] = biological target: Cry1Ia38 protoxin (Bacillus thuringiensis); assay: SEC; Superdex-200 10/300 GL on an ÄKTA Explorer 100; sizes interpolated from protein standards (44-669 kDa); purified proteins loaded
[2] = biological target: Cry1Ia38 protoxin (Bacillus thuringiensis); assay: SDS-PAGE under non-denaturing conditions; SDS-12%PAGE of SEC peak fractions; loading buffer without SDS or β-mercaptoethanol, heated at 50 °C for 3 min to preserve oligomers
[3] = biological target: Cry1Ia trypsin intermediate (T-Int) (Bacillus thuringiensis); assay: as above
[4] = biological target: Cry1Ia trypsin intermediate (T-Int) (Bacillus thuringiensis); assay: SEC
[5] = biological target: Cry1Ia gut fluid intermediate (GF-Int) (Bacillus thuringiensis); assay: SEC
[6] = biological target: fully trypsinized Cry1Ia protein (toxin) (Bacillus thuringiensis); assay: SEC; Superdex-200 10/300 GL on an ÄKTA Explorer 100; sizes interpolated from protein standards (44-669 kDa); purified proteins loaded

Cry1Ia38 protoxin (natural protein)
stoichiometry N [1]: 2 | stoichiometry N [2]: 2

Cry1Ia trypsin intermediate (T-Int) (domain or fragment)
stoichiometry N [3]: 2 | stoichiometry N [4]: 2

Cry1Ia gut fluid intermediate (GF-Int) (domain or fragment)
stoichiometry N [5]: 2

fully trypsinized Cry1Ia protein (toxin) (domain or fragment)
stoichiometry N [6]: 2
